By Km is commonly meant the substrate concentration at which the rate is half of its maximum. For orientation: kcat means the number of substrate molecules converted per active site and unit of time at saturation. What is called kcat/Km is the turnover number divided by the Michaelis constant. As usually defined, the stoichiometry N is a count of units in the complex or per binding partner.

Results on two molecules are retold here after PMC10652518, “Enzyme kinetics of deoxyuridine triphosphatase from Western corn rootworm” (BMC Research Notes, 2023).

For data set [1], the system named is T1, O=c1ccn([C@H]2C[C@H](O)[C@@H](COP(=O)(O)OP(=O)(O)OP(=O)(O)O)O2)c(=O)[nH]1.
T1 construct: starts at residue 25; R89K to prevent secondary thrombin cleavage; N-terminal 6-His tag cut by thrombin; codon-optimized synthetic gene in pET-15, E. coli; trimer (48 kDa by SEC)
Kind of data set: cresol red proton-release assay, stopped-flow spectrophotometer, integrated Michaelis-Menten fit. As to conditions: 50 nM enzyme, 1 mM dUTP; activity prevented by EDTA. It is filed as biochemical, Diabrotica virgifera. An excerpt:
cresol red proton-release assay, stopped-flow spectrophotometer, integrated Michaelis-Menten fit on WCR dUTPase

Data set [2] concerns the molecule itself. Kind of data set: SEC; Superdex matrix, molecular weight calibrated with the BioRad SEC standard; tag-free dUTPase, estimated 48 kDa against 15.6 kDa on SDS-PAGE.

With “WCR dUTPase (Diabrotica virgifera virgifera; R89K)”, in data set [1], the Km was found to be 0.7 ± 0.1 µM, the kcat came to 30 ± 0.5 s⁻¹ and the kcat/Km came out at 4e+07 M⁻¹ s⁻¹.

B1: Western corn rootworm (Diabrotica virgifera virgifera) deoxyuridine 5'-triphosphate nucleotidohydrolase (dUTPase), construct from residue 25 with Arg89Lys, … (enzyme, UniProt A0A6P7FUX9 25-168, looked up)
chain: GANILLKYTKVIEEAYPPTKGSVKAAGYDLKSAHDVVVPARGKALVDTGLKIELPEGCYGRIAPKSGLAVKNFIDVGAGVVDEDYRGLLKVVLFNHSDNDFEVKSGDRIAQLICERIFYPELEEVKELTDTARGEGGFGSTGTQ
notes: dUTPase of Diabrotica virgifera virgifera LeConte (protein XP_028136545; UniProt ID A0A6P7FUX9_DIAVI); the construct starts at the 25th residue of the WCR dUTPase; Arg89 changed to Lys to prevent secondary thrombin cleavage; Cloned into pET-15 by NcoI and XhoI; also called WCR dUTPase; product of WCR DUT; source: E. coli, purified (Ni-NTA, HiTrap Q; His-tag removed with human alpha-thrombin, …)
Turning to B1, the “stoichiometry N” value in data set [2] is 3.
